Numbering of substitutions follows the chain as printed. In names and notes the source's numbering stands.

In assay [1] the target is Type-I collagen (VitroCol, human) (human) (UniProt P02452).
Assay [2] shares this target. As to the kind of experiment: SPR; collagen immobilised on CM5 chip at around 8000 RU; OMD or muteins injected (0.125-2 µM), 30 µl/min; PBS pH 7.4, 0.005% Tween-20, 20 °C; KD by steady state analysis; binding response at 2 µM.
Assay [3] has as its target T1, Type-I collagen (VitroCol, human) (human, UniProt P02452 162-1218; P08123 80-1119). Kind of assay: cell-based or functional assay.
Assay [4] addresses T1, Type-I collagen (VitroCol, human). Kind of assay: SPR; temperature dependence of the dissociation constant, van't Hoff analysis; values given at 32 °C. To be noted: both partners purified.
The target is the same in assay [5]. As to the kind of experiment: SPR; collagen immobilised on CM5 chip at around 8000 RU; OMD or muteins injected (0.125-2 µM), 30 µl/min; PBS pH 7.4, 0.005% Tween-20, 20 °C; KD by steady state analysis; binding response at 2 µM. To be noted: both partners purified.

T1 sequence (P02452 162-1218, chain 1 of 2): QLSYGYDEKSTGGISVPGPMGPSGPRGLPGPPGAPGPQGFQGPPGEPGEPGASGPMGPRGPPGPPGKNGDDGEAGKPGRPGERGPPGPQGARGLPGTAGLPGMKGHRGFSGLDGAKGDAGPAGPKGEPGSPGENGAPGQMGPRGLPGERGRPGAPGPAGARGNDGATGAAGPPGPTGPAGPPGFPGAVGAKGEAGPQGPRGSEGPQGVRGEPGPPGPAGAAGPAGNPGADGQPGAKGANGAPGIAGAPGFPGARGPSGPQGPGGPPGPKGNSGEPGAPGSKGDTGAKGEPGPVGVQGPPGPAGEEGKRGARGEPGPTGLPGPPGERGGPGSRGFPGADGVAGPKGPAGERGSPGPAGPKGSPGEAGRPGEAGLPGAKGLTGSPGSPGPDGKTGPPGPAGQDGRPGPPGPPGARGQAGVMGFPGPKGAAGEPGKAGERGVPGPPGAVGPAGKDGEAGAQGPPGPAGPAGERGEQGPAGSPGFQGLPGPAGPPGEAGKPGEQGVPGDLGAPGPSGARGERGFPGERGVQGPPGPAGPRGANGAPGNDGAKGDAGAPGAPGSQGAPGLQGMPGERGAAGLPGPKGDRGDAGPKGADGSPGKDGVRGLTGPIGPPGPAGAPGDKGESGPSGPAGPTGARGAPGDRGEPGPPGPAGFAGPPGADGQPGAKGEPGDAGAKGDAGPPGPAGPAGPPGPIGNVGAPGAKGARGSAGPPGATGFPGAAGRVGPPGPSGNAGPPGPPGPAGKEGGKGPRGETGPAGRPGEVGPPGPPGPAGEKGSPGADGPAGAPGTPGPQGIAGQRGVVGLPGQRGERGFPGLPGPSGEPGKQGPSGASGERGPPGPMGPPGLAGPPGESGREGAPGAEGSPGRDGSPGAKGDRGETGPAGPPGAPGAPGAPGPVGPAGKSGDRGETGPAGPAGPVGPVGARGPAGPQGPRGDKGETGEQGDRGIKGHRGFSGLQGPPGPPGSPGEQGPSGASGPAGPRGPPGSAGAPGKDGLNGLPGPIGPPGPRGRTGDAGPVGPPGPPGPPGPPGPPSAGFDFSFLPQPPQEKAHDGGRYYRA
T1 sequence (P08123 80-1119, chain 2 of 2): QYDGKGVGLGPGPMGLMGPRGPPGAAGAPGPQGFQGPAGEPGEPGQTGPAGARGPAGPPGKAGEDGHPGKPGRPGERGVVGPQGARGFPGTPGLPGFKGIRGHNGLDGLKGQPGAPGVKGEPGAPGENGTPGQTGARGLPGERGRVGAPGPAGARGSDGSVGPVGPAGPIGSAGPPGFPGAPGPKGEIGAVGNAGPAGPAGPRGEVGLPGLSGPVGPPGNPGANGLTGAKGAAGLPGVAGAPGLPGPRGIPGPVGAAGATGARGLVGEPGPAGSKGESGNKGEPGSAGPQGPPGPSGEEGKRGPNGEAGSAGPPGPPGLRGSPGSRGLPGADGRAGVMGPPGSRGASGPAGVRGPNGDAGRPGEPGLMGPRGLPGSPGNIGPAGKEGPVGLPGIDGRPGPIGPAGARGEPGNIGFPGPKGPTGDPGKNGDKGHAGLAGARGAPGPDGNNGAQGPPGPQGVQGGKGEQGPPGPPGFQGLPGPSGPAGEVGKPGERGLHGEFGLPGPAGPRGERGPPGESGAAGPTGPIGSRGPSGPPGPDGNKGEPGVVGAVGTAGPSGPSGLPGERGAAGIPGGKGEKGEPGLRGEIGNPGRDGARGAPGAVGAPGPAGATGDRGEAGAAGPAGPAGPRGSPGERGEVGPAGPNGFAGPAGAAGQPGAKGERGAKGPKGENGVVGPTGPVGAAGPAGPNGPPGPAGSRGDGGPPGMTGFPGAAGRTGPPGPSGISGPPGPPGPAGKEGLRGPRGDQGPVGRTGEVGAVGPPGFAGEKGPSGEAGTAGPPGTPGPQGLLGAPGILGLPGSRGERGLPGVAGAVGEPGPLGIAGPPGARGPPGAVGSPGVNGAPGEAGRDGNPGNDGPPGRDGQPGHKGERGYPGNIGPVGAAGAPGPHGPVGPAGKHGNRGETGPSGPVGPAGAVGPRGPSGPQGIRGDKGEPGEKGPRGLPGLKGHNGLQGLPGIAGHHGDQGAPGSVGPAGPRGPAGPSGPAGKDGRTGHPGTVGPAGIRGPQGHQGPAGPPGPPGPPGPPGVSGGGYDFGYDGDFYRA
Sequence of Type-I collagen (VitroCol, human) (human) (P02452 162-1218, chain 1 of 2): as the sequence (P02452 162-1218, chain 1 of 2) above
Sequence of Type-I collagen (VitroCol, human) (human) (P08123 80-1119, chain 2 of 2, further chain): as the sequence (P08123 80-1119, chain 2 of 2) above

On to “chOMD E284R/E303R (from UniProt Q99983 117-364)”, for which, in assay [1], the IC50 (µM) of inhibition of collagen fibril formation (normalized kobs, 1 µM collagen, PBS pH 7.4, 30 °C) was determined as 2.18 μM; the kobs (per h) of collagen fibril formation with 0, 0.016, 0.08, 0.4, 2 and 10 μM chE284R/E303R (1.00 down to 0.65) came out at 1 per h.
Turning to “chOMD E311R (from UniProt Q99983 117-364)”, in assay [2], the Binding (RU) at 2 µM amounted to 22.6 RU and the Kd was determined as 5.48 µM.
In assay [2], “chOMD D271R (from UniProt Q99983 117-364)” had a Binding (RU) at 2 µM of 71 RU and a Kd of 25.6 µM.
In assay [1], “chOMD E284R (from UniProt Q99983 117-364)” yielded an IC50 (µM) of inhibition of collagen fibril formation (normalized kobs, 1 µM collagen, PBS pH 7.4, 30 °C) of 0.61 μM; a kobs (per h) of collagen fibril formation with 0, 0.016, 0.08, 0.4, 2 and 10 μM chE284R (0.90 down to 0.00028) of 0.9 per h. Moreover, in assay [2], the Binding (RU) at 2 µM is 22.3 RU and the Kd amounted to 32000 µM.
Regarding “chOMD E284A (from UniProt Q99983 117-364)”, in assay [1], the IC50 (µM) of inhibition of collagen fibril formation (normalized kobs, 1 µM collagen, PBS pH 7.4, 30 °C) was 0.32 μM; the kobs (per h) of collagen fibril formation with 0, 0.016, 0.08, 0.4, 2 and 10 μM chE284A (1.02 down to 0.00003) was 1.02 per h. Further, in assay [2], the Binding (RU) at 2 µM was determined as 57.4 RU and the equilibrium dissociation constant (Kd) came to 78.3 µM.
As for “chOMD E303A (from UniProt Q99983 117-364)”, in assay [1], the IC50 (µM) of inhibition of collagen fibril formation (normalized kobs, 1 µM collagen, PBS pH 7.4, 30 °C) is 0.37 μM; the kobs (per h) of collagen fibril formation with 0, 0.016, 0.08, 0.4 and 2 μM chE303A (1.32 down to 0.51; n.d. at 10 μM) was determined as 1.32 per h.
Regarding “chOMD E303R (from UniProt Q99983 117-364)”, in assay [1], the IC50 (µM) of inhibition of collagen fibril formation (normalized kobs, 1 µM collagen, PBS pH 7.4, 30 °C) worked out at 1.87 μM; the kobs (per h) of collagen fibril formation with 0, 0.016, 0.08, 0.4, 2 and 10 μM chE303R (1.35 down to 0.10) came to 1.35 per h. In assay [2], this molecule returned a Binding (RU) at 2 µM of 3.7 RU and a Kd of 72.4 µM.
Take “Chimeric OMD (chOMD): N-terminal region of the leucine-rich repeat domain of internalin B fused to a large portion of OMD (from UniProt Q99983 117-364)”: in assay [1], the IC50 (µM) of inhibition of collagen fibril formation (normalized kobs, 1 µM collagen, PBS pH 7.4, 30 °C) worked out at 0.22 μM; the kobs (per h) of collagen fibril formation with 0, 0.016, 0.08, 0.4, 2 and 10 μM chOMD (0.89 down to 0.00) turned out to be 0.89 per h. Further, in assay [2], the Binding (RU) at 2 µM was 118 RU and the Kd is 25.4 µM.
In the case of “chOMD E225R (from UniProt Q99983 117-364)”, in assay [2], the Binding (RU) at 2 µM is 106 RU and the dissociation constant Kd came to 29.1 µM.
The matching figures for “chOMD E173R (from UniProt Q99983 117-364)”: 118 RU and 51.4 µM.
On the same counts, the results for “chOMD D254R (from UniProt Q99983 117-364)” are 74.8 RU and 22.3 µM.
In assay [2], “chOMD N278R (from UniProt Q99983 117-364)” came in with a Binding (RU) at 2 µM of 47.4 RU and a dissociation constant (Kd) of 14.3 µM.

B1: Osteomodulin (OMD), human, recombinant with C-terminal FLAG-tag (natural protein, UniProt Q99983 21-421, looked up)
chain: QYETYQWDEDYDQEPDDDYQTGFPFRQNVDYGVPFHQYTLGCVSECFCPTNFPSSMYCDNRKLKTIPNIPMHIQQLYLQFNEIEAVTANSFINATHLKEINLSHNKIKSQKIDYGVFAKLPNLLQLHLEHNNLEEFPFPLPKSLERLLLGYNEISKLQTNAMDGLVNLTMLDLCYNYLHDSLLKDKIFAKMEKLMQLNLCSNRLESMPPGLPSSLMYLSLENNSISSIPEKYFDKLPKLHTLRMSHNKLQDIPYNIFNLPNIVELSVGHNKLKQAFYIPRNLEHLYLQNNEIEKMNLTVMCPSIDPLHYHHLTYIRVDQNKLKEPISSYIFFCFPHIHTIYYGEQRSTNGQTIQLKTQVFRRFPDDDDESEDHDDPDNAHESPEQEGAEGHFDLHYYENQE
notes: osteomodulin (OMD), human, without residues 1-20 (signal peptide), residues 21-421; Its own signal peptide was replaced by the sp1-2 signal peptide for secretion; Carbohydrate is modelled in the crystal structure; Monomer by SEC-MALS; also called full-length OMD; WT OMD; source: Sf9 cells, baculovirus, secreted; not shown: FLAG, C-terminal, kept
In the case of B1, the “IC50 (µM) of inhibition of collagen fibril formation (normalized kobs, 1 µM collagen, PBS pH 7.4, 30 °C)” value in assay [3] was determined as 0.08 μM. In assay [4], this molecule came in with an equilibrium dissociation constant (Kd) of 12 µM and a dH of 7.9 kcal/mol. This molecule also showed a Kd in assay [5] of 24.6 µM.

B2: OMD E284R/E303R (double mutant in the construct of full-length OMD) (natural protein, human, UniProt Q99983 21-421, looked up)
chain: B1 chain with E264R, E283R
Regarding B2, the “IC50 (µM) of inhibition of collagen fibril formation (normalized kobs, 1 µM collagen, PBS pH 7.4, 30 °C)” value in assay [3] is 0.29 μM.

For the origin of these results see PMC6123635, “Molecular basis for governing the morphology of type-I collagen fibrils by Osteomodulin” (Communications Biology, 2018).
